IntAct's records for PubMed 16469698

B1: Transcription-repair-coupling factor (Escherichia coli (strain K12)), P30958 (parent)
chain: MPEQYRYTLPVKAGEQRLLGELTGAACATLVAEIAERHAGPVVLIAPDMQNALRLHDEISQFTDQMVMNLADWETLPYDSFSPHQDIISSRLSTLYQLPTMQRGVLIVPVNTLMQRVCPHSFLHGHALVMKKGQRLSRDALRTQLDSAGYRHVDQVMEHGEYATRGALLDLFPMGSELPYRLDFFDDEIDSLRVFDVDSQRTLEEVEAINLLPAHEFPTDKAAIELFRSQWRDTFEVKRDPEHIYQQVSKGTLPAGIEYWQPLFFSEPLPPLFSYFPANTLLVNTGDLETSAERFQADTLARFENRGVDPMRPLLPPQSLWLRVDELFSELKNWPRVQLKTEHLPTKAANANLGFQKLPDLAVQAQQKAPLDALRKFLETFDGPVVFSVESEGRREALGELLARIKIAPQRIMRLDEASDRGRYLMIGAAEHGFVDTVRNLALICESDLLGERVARRRQDSRRTINPDTLIRNLAELHIGQPVVHLEHGVGRYAGMTTLEAGGITGEYLMLTYANDAKLYVPVSSLHLISRYAGGAEENAPLHKLGGDAWSRARQKAAEKVRDVAAELLDIYAQRAAKEGFAFKHDREQYQLFCDSFPFETTPDQAQAINAVLSDMCQPLAMDRLVCGDVGFGKTEVAMRAAFLAVDNHKQVAVLVPTTLLAQQHYDNFRDRFANWPVRIEMISRFRSAKEQTQILAEVAEGKIDILIGTHKLLQSDVKFKDLGLLIVDEEHRFGVRHKERIKAMRANVDILTLTATPIPRTLNMAMSGMRDLSIIATPPARRLAVKTFVREYDSMVVREAILREILRGGQVYYLYNDVENIQKAAERLAELVPEARIAIGHGQMRERELERVMNDFHHQRFNVLVCTTIIETGIDIPTANTIIIERADHFGLAQLHQLRGRVGRSHHQAYAWLLTPHPKAMTTDAQKRLEAIASLEDLGAGFALATHDLEIRGAGELLGEEQSGSMETIGFSLYMELLENAVDALKAGREPSLEDLTSQQTEVELRMPSLLPDDFIPDVNTRLSFYKRIASAKTENELEEIKVELIDRFGLLPDPARTLLDIARLRQQAQKLGIRKLEGNEKGGVIEFAEKNHVNPAWLIGLLQKQPQHYRLDGPTRLKFIQDLSERKTRIEWVRQFMRELEENAIA

Variants of: B1
Details: with rpob_ecoli rpoB

Variant	effect of a mutation on the interaction
L499R	decreasing interaction
